To fix the notation:
B1: Vascular endothelial growth factor receptor 2 (Mus musculus), P35918 (parent)
chain: MESKALLAVALWFCVETRAASVGLPGDFLHPPKLSTQKDILTILANTTLQITCRGQRDLDWLWPNAQRDSEERVLVTECGGGDSIFCKTLTIPRVVGNDTGAYKCSYRDVDIASTVYVYVRDYRSPFIASVSDQHGIVYITENKNKTVVIPCRGSISNLNVSLCARYPEKRFVPDGNRISWDSEIGFTLPSYMISYAGMVFCEAKINDETYQSIMYIVVVVGYRIYDVILSPPHEIELSAGEKLVLNCTARTELNVGLDFTWHSPPSKSHHKKIVNRDVKPFPGTVAKMFLSTLTIESVTKSDQGEYTCVASSGRMIKRNRTFVRVHTKPFIAFGSGMKSLVEATVGSQVRIPVKYLSYPAPDIKWYRNGRPIESNYTMIVGDELTIMEVTERDAGNYTVILTNPISMEKQSHMVSLVVNVPPQIGEKALISPMDSYQYGTMQTLTCTVYANPPLHHIQWYWQLEEACSYRPGQTSPYACKEWRHVEDFQGGNKIEVTKNQYALIEGKNKTVSTLVIQAANVSALYKCEAINKAGRGERVISFHVIRGPEITVQPAAQPTEQESVSLLCTADRNTFENLTWYKLGSQATSVHMGESLTPVCKNLDALWKLNGTMFSNSTNDILIVAFQNASLQDQGDYVCSAQDKKTKKRHCLVKQLIILERMAPMITGNLENQTTTIGETIEVTCPASGNPTPHITWFKDNETLVEDSGIVLRDGNRNLTIRRVRKEDGGLYTCQACNVLGCARAETLFIIEGAQEKTNLEVIILVGTAVIAMFFWLLLVIVLRTVKRANEGELKTGYLSIVMDPDELPLDERCERLPYDASKWEFPRDRLKLGKPLGRGAFGQVIEADAFGIDKTATCKTVAVKMLKEGATHSEHRALMSELKILIHIGHHLNVVNLLGACTKPGGPLMVIVEFCKFGNLSTYLRGKRNEFVPYKSKGARFRQGKDYVGELSVDLKRRLDSITSSQSSASSGFVEEKSLSDVEEEEASEELYKDFLTLEHLICYSFQVAKGMEFLASRKCIHRDLAARNILLSEKNVVKICDFGLARDIYKDPDYVRKGDARLPLKWMAPETIFDRVYTIQSDVWSFGVLLWEIFSLGASPYPGVKIDEEFCRRLKEGTRMRAPDYTTPEMYQTMLDCWHEDPNQRPSFSELVEHLGNLLQANAQQDGKDYIVLPMSETLSMEEDSGLSLPTSPVSCMEEEEVCDPKFHYDNTAGISHYLQNSKRKSRPVSVKTFEDIPLEEPEVKVIPDDSQTDSGMVLASEELKTLEDRNKLSPSFGGMMPSKSRESVASEGSNQTSGYQSGYHSDDTDTTVYSSDEAGLLKMVDAAVHADSGTTLRSPPV

The variants in the experiment derive from B1. The settings on record: with pgfrb_human PDGFRB.
On to Y1052F;Y1057F, for which the “effect of a mutation on the interaction” value was “disrupting interaction”.

These data come from IntAct's records for PubMed 18997771.
